In patent publication US20020009752A1 (DUKE UNIVERSITY, published 2002):
No end group written: not given here.

B1: QBP2 phage clone (Glutamine Binding Peptide 2 displayed on M13 phage) (peptide)
chain: HWWRSWYSDSV-pIII
notes: Assayed as purified M13 phage displaying the 11-mer at the amino terminus of pIII; not shown: pIII (Piii) capsid protein of phage M13; the 11-mer is added to its amino terminus; assayed as whole phage
B2: QBP3 phage clone (Glutamine Binding Peptide 3 displayed on M13 phage) (peptide)
chain: HEWHWWHQEAA-pIII
notes: as for B1
B3: QBP1 synthetic 11-mer peptide (glutamine binding peptide 1) (peptide)
peptide: Ac-SNWKWWPGIFD
B4: QBP5 phage clone (Glutamine Binding Peptide 5 displayed on M13 phage) (peptide)
chain: WWRWNWATPVD-pIII
notes: as for B1
B5: QBP4 phage clone (Glutamine Binding Peptide 4 displayed on M13 phage) (peptide)
chain: WGLEHFAGNKR-pIII
notes: as for B1
B6: QBP1 phage clone (Glutamine Binding Peptide 1 displayed on M13 phage) (peptide)
chain: SNWKWWPGIFD-pIII
notes: as for B1
B7: QBP6 phage clone (Glutamine Binding Peptide 6 displayed on M13 phage) (peptide)
chain: WHNYFHWWQDT-pIII
notes: as for B1

Tests used:
[1] = biological target: T1, bovine serum albumin (bovine, UniProt P02769 25-607); assay: phage ELISA
T1 construct: also called BSA

[2] = biological target: T2, polyglutamine-glutathione-S-transferase fusion protein with 62 glutamines (UniProt Q156A1 2-63); assay: phage ELISA on immobilized Q62-GST and Q19-GST, anti-M13 antibody detection; reference Q19-GST
T2 construct: Vector construction is cited to Onodera et al. 1996; also called Q62-GST; Q62; not shown: glutathione-S-transferase (GST)

[3] = biological target: thioredoxin-polyglutamine fusion protein with 81 glutamines (Dictyostelium discoideum (Social amoeba), UniProt Q54DK4 734-1290); assay: cell-based or functional assay
[4] = biological target: thioredoxin-polyglutamine fusion protein with 62 glutamines (Homo sapiens (Human), UniProt Q156A1 2-63); assay: cell-based or functional assay
Chain of thioredoxin-polyglutamine fusion protein with 62 glutamines (Q156A1 2-63): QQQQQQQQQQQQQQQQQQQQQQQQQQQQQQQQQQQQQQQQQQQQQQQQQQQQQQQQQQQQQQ

T1 sequence (P02769 25-607 limits assumed): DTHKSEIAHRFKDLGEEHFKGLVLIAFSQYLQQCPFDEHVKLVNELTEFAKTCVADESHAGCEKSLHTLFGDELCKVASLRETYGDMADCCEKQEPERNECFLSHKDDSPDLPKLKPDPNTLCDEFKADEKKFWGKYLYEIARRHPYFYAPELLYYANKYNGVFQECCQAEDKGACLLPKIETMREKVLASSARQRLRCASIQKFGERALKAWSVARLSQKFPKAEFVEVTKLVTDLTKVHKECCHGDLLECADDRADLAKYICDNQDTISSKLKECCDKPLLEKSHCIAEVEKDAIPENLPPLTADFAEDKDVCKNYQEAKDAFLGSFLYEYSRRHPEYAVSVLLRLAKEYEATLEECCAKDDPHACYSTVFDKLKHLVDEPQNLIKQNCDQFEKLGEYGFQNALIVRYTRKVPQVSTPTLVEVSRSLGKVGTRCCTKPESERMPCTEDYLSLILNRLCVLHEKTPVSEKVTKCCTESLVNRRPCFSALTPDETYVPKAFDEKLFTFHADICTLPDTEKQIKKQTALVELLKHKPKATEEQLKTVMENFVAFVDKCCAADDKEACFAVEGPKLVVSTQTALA
T2 sequence (Q156A1 2-63): as the sequence (Q156A1 2-63) above
Chain of thioredoxin-polyglutamine fusion protein with 81 glutamines (Q54DK4 other isoform, or with tags, fused parts or gaps): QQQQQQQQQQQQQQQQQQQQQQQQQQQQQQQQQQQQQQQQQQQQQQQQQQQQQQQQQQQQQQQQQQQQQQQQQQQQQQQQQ

Binder | binding result [1] | RATIO Q62/Q19 BINDING ELISA [2] | inhibition of thio-Q81 aggregation in vitro (turbidity at 405 nm) [3] | inhibition of thio-Q62 aggregation in vitro (turbidity at 405 nm) [4]
B1 | no binding | 1.31 ratio (phage bound to Q62-GST divided by phage bound to Q19-GST) |  | 
B2 | no binding | 1.3 ratio (phage bound to Q62-GST divided by phage bound to Q19-GST) |  | 
B3 |  |  | 10 fold molar excess of QBP1 over thio-Q81 | 3 molar ratio thio-Q62:QBP1 (3:1) for complete inhibition
B4 | no binding | 1.25 ratio (phage bound to Q62-GST divided by phage bound to Q19-GST) |  | 
B5 | no binding | 1.27 ratio (phage bound to Q62-GST divided by phage bound to Q19-GST) |  | 
B6 | no binding | 1.66 ratio (phage bound to Q62-GST divided by phage bound to Q19-GST) |  | 
B7 | no binding | 1.23 ratio (phage bound to Q62-GST divided by phage bound to Q19-GST) |  | 
